Test results from publication PMC10509265.

Molecular target: IP3R-type 2 (UniProt Q9Z329)
Assay: anti-IP3R2 co-IP from heart lysate
Settings: reference: wild type heart after TAC; sites S14

Substance: Bcl-xL (from UniProt Q64373) S14A knock-in heart after TAC
- binding against the reference: stronger
